Assay results as given in US8084228B2, “Nogo-B receptor antagonists” (Yale University, priority 2006, dated 2011).

Tests used:
NgBR-HA = target: T1, NgBR-HA (Homo sapiens, UniProt Q96E22); assay: Immunoisolation of NgBR-HA from CHO cell extracts incubated with purified Am-Nogo-B, Western blot; format: binding; conditions: lysates of vector or NgBR-HA-transfected CHO cells, 25 μg Am-Nogo-B-myc
T1 construct: CHO cells stably expressing full-length NgBR with a C-terminal HA tag (CHO-NgBR-HA); expressed in transfected cells; host or cells: CHO
T1 sequence (Q96E22 1-293): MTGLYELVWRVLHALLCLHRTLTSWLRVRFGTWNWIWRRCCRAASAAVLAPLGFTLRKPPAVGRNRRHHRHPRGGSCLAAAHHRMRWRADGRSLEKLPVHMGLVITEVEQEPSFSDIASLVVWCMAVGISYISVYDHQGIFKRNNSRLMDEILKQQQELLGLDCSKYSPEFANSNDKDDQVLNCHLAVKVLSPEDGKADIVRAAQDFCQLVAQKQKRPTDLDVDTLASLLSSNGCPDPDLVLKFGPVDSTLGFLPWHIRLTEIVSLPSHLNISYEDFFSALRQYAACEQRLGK
Protocol: Single NgBR cDNA clones were isolated by sib selection and sequenced. A NgBR-HA was created in pIRESneo vector (BD, Palo Alto, Calif.), with the HA tag at the carboxy terminus. To access the physical interaction of NgBR with Am-Nogo-B, 50 μg of solubilized extracts of CHO cells expressing control vector (pIRESneo) or NgBR-HA was incubated with 25 μg of purified Am-Nogo-B or buffer for 2 hours at room temperature. The HA-tagged NgBR was immunoisolated with anti-HA immunobeads (Roche, Indianapolis, Ind.) and associated proteins analyzed by Western blotting. For the Western blots, expression of NgBR-HA was detected by using anti-HA (Roche) and NgBR (Imgenex), respectively, and beta-actin (Sigma) or Hsp90 (BD Biosciences-Pharmingen) was used to control for loading.

NgBR [1] = target: T2, NgBR (Homo sapiens, UniProt Q96E22); assay: AP fusion protein binding to COS cells transfected with the isolated NgBR cDNA; design: an isolated cDNA encoding NgBR is 2,636 base pairs encoding an open reading frame of 293 amino acids; expressed in transfected cells; host or cells: COS-7 (A4); conditions: COS cells (FIG. 6)
T2 sequence (Q96E22 1-293): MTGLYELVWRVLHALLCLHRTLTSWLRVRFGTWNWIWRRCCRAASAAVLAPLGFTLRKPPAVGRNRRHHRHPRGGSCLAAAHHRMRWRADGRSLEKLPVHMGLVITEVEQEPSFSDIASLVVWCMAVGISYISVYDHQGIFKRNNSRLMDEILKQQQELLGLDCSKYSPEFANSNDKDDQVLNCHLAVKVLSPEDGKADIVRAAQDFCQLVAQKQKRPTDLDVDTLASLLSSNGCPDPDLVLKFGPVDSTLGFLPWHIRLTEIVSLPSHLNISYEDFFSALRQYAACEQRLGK
Protocol: (§1) To detect AP-Am-Nogo-B binding, cultures were washed with Hanks' balanced salt solution (HBSS) containing 20 mM HEPES, pH 7.5, and 1 mg/mL BSA (HBH). The plates were then incubated with AP-Am-Nogo-B in DMEM containing 20 mM Hepes, pH 7.5, and 1 mg/mL BSA for 2 hours at 4° C. The bound AP-Am-Nogo-B was detected by using the Blue Substrate kit (Vector Laboratories). The blue staining was examined by using the ODYSSEY Infrared Imaging System (Li-Cor, Lincoln, Nebr.) and confirmed by microscopy. Alternatively, the bound AP-Am-Nogo-B was extracted with Triton X-100, and AP activity was colorimetrically quantified by using p-nitrophenyl phosphate (Sigma) as substrate after heat inactivation of endogenous AP. Non-specific binding was determined by measuring binding in the presence of a 100-fold molar excess of recombinant Am-Nogo-B lacking the AP fusion protein. Specific binding was determined by subtracting the non-specific binding from total binding. For determination of apparent Kd, the binding of AP-Am-Nogo-B was measured in triplicate as described above and the Kd value was quantified by using the Scatchard plot program of GraphPad PRISM (one-site binding, linear regression) using the ratio of bound ligand to free ligand as the y axis and bound ligand (pM) as the x axis.
For expression cloning of Am-Nogo-B receptor, pools of 5,000 arrayed clones from a human heart cDNA library (OriGene Technologies, Rockville, Md.) were transfected into COS-7 cells, and AP-Am-Nogo-B binding was assessed by using AP versus AP-Am-Nogo-B binding and detection of the AP product by near-infrared cell imaging (Li-Cor, Lincoln, Nebr.) or AP activity assays.
Single NgBR cDNA clones were isolated by sib selection and sequenced. […] The HA-tagged NgBR was immunoisolated with anti-HA immunobeads (Roche, Indianapolis, Ind.) and associated proteins analyzed by Western blotting. For the Western blots, expression of NgBR-HA was detected by using anti-HA (Roche) and NgBR (Imgenex), respectively, and beta-actin (Sigma) or Hsp90 (BD Biosciences-Pharmingen) was used to control for loading.

A549 cells [2] = assay: Tumors of A549 cells engineered to secrete Am-Nogo-B in immunodeficient mice; format: in vivo
HUVEC [3] = assay: Tube formation of HUVEC in 3-D collagen cultures (total network length); format: cell-based, human; conditions: Am-Nogo-B 80 nM, 1-2 days
Protocol: HUVEC were resuspended (final concentration of 1×10^6) in a mixture containing rat tail type I collagen (1.5 mg/mL) 1/10 volume of 10×M199 and 1 M Hepes, neutralized with NaOH. Droplets (0.1 mL each) of the cell/collagen mixture were placed in cell culture dishes and allowed to polymerize for 15 minutes at 37° C. Growth medium containing either vehicle or agonist was then added to each well. HUVEC were allowed to form tube-like structures for 1-2 days. To evaluate tube formation in 3-D cultures, cells were photographed using the program OPENLAB (Improvision) and total-network length, defined as an elongation of cell into tube-like structures typically seen in 3-D cultures, was quantified in five fields for each replicate per experiment by using the measurement tools provided with OPENLAB.

HUVEC [4] = assay: HUVEC migration in modified Boyden chambers; format: cell-based, human; conditions: recombinant Am-Nogo-B at various concentrations, 5 hours; similar in magnitude to 1.1 nM VEGF
Protocol: The migratory response of human umbilical vein endothelial cells (HUVEC) in response to a gradient of recombinant, purified alkaline phosphatase (AP) fusion protein expressing Am-Nogo-B or a recombinant purified Am-Nogo-B was examined. HUVEC were cultured in M199 with 20% FBS and endothelial cell growth supplement (ECGS).
(§2) Cell migration was examined in modified Boyden chambers using 10 nM each of purified recombinant AP, AP fusion of Nogo-66 (AP-Nogo-66) or Am-Nogo-B. The transwell inserts (Costar transwell inserts; Corning) were coated with a solution of 0.1% gelatin (Sigma) in PBS at 4° C. overnight and then air-dried. VEGF at 50 ng/mL (1.1 nM) or recombinant Am-Nogo-B at various concentrations dissolved in medium 199 containing 0.1% BSA was added in the bottom chamber of the Boyden apparatus. HUVEC (200,000 cells) suspended in a 100 μL aliquot of medium 199 containing 0.1% BSA was added to the upper chamber. After 5 hours incubation, cells on both sides of the membrane were fixed and stained with a Diff-Quik staining kit (Baxter Healthcare, Miami, Fla.). The average number of cells from five randomly chosen high-power (×400) fields on the lower side of the membrane was counted.

A549 cells [5] = assay: Growth in culture of A549 cells engineered to secrete Am-Nogo-B; format: cell-based, human; conditions: A549 cells secreting Am-Nogo-B versus vector control
Excerpt: Human A549 cells were stably transfected with vector alone (control) or a vector encoding a secreted form of Am-Nogo-B. The production of Am-Nogo-B and the effects on A549 cell growth in culture were examined.

[6] = test system: CHO cells expressing NgBR; assay: Chemotaxis of CHO cells and CHO cells expressing NgBR in a Boyden chamber; format: cell-based; conditions: CHO cells versus CHO cells expressing NgBR
Protocol: as §2
Using the method described above, CHO cells and CHO cells expressing NgBR were placed into a Boyden chamber and the chemotactic response to soluble Am-Nogo-B was examined.

NgBR [7] = target: T2, NgBR; assay: AP fusion protein binding to CHO cells expressing NgBR; design: an isolated cDNA encoding NgBR is 2,636 base pairs encoding an open reading frame of 293 amino acids; expressed in transfected cells; conditions: increasing concentrations of purified Am-Nogo-B
Protocol: as §1
A recombinant AP-Am-Nogo-B fusion protein was used to screen a cDNA expression library from human heart (500,000 independent clones) transfected into COS or CHO cells using Lipofectamine 2000 (Invitrogen). COS-7 cells were cultured in high-glucose DMEM with 10% FBS. CHO cells were cultured in MEM-α with 5% FBS.

[8] = Lipid transferase activity, [1-14C]IPP incorporation into polyprenyl diphosphates; format: biochemical; conditions: 1 μg immunoisolated protein, 20 minutes at 37° C.
Protocol: NgBR and NgBR lacking the cytoplasmic domain (NgBR-CD) was immunoisolated from CHO cells expressing NgBR-HA or NgBR-CD by using anti-HA matrix beads. Lipid transferase activity was measured by determining the amount of [1-^14C]IPP (isopentenyl pyrophosphate) incorporated into butanol-extractable polyprenyl diphosphates. The activity was assayed in a 50 μL reaction containing 50 mM Hepes, pH 7.5, 2 mM MgCl2, 5 mM KF, 1 mM DTT, 0.5% CHAPS, 50 μM [1-^14C]IPP (0.15 μCi per reaction) and 50 μM allylic isoprenoid diphosphate (farnesyl diphosphate, geranylgeranyl diphosphate). The reaction was started by the addition of 1 μg of protein and allowed to proceed for 20 minutes at 37° C. Mouse liver extract (1 μg) was used as a positive control for the assay. The reaction was stopped by the addition of 0.5 mL of 1-butanol saturated with water, […] followed by the addition of 0.5 mL of 2 M KCl. An aliquot of the butanol phase was removed for scintillation counting using SafeScint scintillation (American Bioanalytic, Natick, Mass.).

Endothelial cells [9] = assay: Am-Nogo-B-induced migration of endothelial cells, inhibition by NgBR ectodomain peptides or fusion protein; format: cell-based; conditions: endothelial cells (FIG. 35)
Protocol: as §2
Endothelial cells were incubated with vehicle (control) of one of peptides P1-P4 (200 nM each) in the presence of Am-Nogo-B (100 nM).
Similarly, treatment of endothelial cells with mFc-ecto, but not mFc, blocked Am-Nogo-B-induced cell migration (FIG. 35).

Endothelial cells [10] = assay: Blocking of AP-Am-Nogo-B binding to endothelial cells; conditions: 20 nM and 100 nM
Protocol: as §1, with “axis. […]” for “axis.”

[11] = A549 tumors expressing Am-Nogo-B

B1: Am-Nogo-B: Residues 1-200 of Nogo-B, the amino terminus; recombinant, purified, with Myc-His tag (protein)
chain: MEDLDQSPLVSSSDSPPRPQPAFKYQFVREPEDEEEEEEEEEEDEDEDLEELEVLERKPAAGLSAAPVPTAPAAGAPLMDFGNDFVPPAPRGPLPAAPPVAPERQPSWDPSPVSSTVPAPSPLSAAAVSPSKLPEDDEPPARPPPPPPASVSPQAEPVWTPPAPAPAAPPSTPAAPKRRGSSGSVVVDLLYWRDIKKTGV
modifications: left off: small tags and cut ends
notes: Residues 1-200 of Nogo-B, the amino terminus; recombinant, purified, with Myc-His tag
- physical interaction with NgBR-HA (immunopurification) (NgBR-HA): interacted with lysates only when the receptor was expressed
- binding to COS cells transfected with the isolated NgBR cDNA (NgBR [1]): afforded the binding
- growth rate of tumors in vivo (A549 cells [2]; A549 cells secreting Am-Nogo-B versus vector control, immunodeficient mice): increased the growth rate of tumors
- lymphangiogenesis (LYVE-1 staining) (A549 cells [2]; [11]): reduced lymphangiogenesis
- tumor angiogenesis (PECAM-1-positive tumor cells) (A549 cells [2]; [11]): increased angiogenesis
- tumor associated macrophages (F4/80 positive cells) (A549 cells [2]; [11]): increase tumor associated macrophages
- tube formation (HUVEC [3]): stimulated an increase in tube formation
- HUVEC migration, dose dependence (HUVEC [4]): dose-dependently increases migration
- basal growth of A549 cells in culture (A549 cells [5]): did not effect the basal growth
- chemotactic response to soluble Am-Nogo-B [6]: transfection of NgBR was required
- displacement of the binding of 10 nM AP-Am-Nogo-B from transfected CHO cells (NgBR [7]): dose-dependently displaced

B2: NgBR: human Nogo-B receptor, 293 amino acids, SEQ ID NO:1; immunoisolated as NgBR-HA from CHO cells (protein, listed as Homo sapiens)
chain: MTGLYELVWRVLHALLCLHRTLTSWLRVRFGTWNWIWRRCCRAASAAVLAPLGFTLRKPPAVGRNRRHHRHPRGGSCLAAAHHRMRWRADGRSLEKLPVHMGLVITEVEQEPSFSDIASLVVWCMAVGISYISVYDHQGIFKRNNSRLMDEILKQQQELLGLDCSKYSPEFANSNDKDDQVLNCHLAVKVLSPEDGKADIVRAAQDFCQLVAQKQKRPTDLDVDTLASLLSSNGCPDPDLVLKFGPVDSTLGFLPWHIRLTEIVSLPSHLNISYEDFFSALRQYAACEQRLGK
modifications: HA tag
notes: immunoisolated as NgBR-HA from CHO cells
- lipid transferase activity [8]: negative

B3: mFc-ecto: Fc fusion of amino acids 52-116 of NgBR (SEQ ID NO:1), HA-, heptahistidine tagged fusion protein (protein)
chain: LGFTLRKPPAVGRNRRHHRHPRGGSCLAAAHHRMRWRADGRSLEKLPVHMGLVITEVEQEPSFSD
modifications: also: Fc fusion, HA tag, heptahistidine tag
- Am-Nogo-B-induced cell migration in presence of Fc protein (Endothelial cells [9]): blocked
- binding of AP-Am-Nogo-B to endothelial cells in presence of Fc protein (Endothelial cells [10]): blocked
